Here are results for one molecule from patent publication US20260217847A1 (NANJING REGENECORE BIOTECH, published 2026).

Common to all, as to assay: peptide ELISA on streptavidin plate, 2 µg/mL 2H7-hFc, anti-hFc HRP
On the technique in general: In an ELISA, binding on a coated surface is turned into a signal by an enzyme label.

The target in experiment [1] is T1, TfR1 peptide D3-helix1 (human).
T1 construct: Synthetic peptide, captured on a streptavidin-coated plate; also called peptide No. 5
T1 peptide: RLYWDDLKRKLSEKLDSTD
As for the experimental part:
(§1) The peptide-antibody binding was identified using a standard enzyme-linked immunosorbent assay (ELISA). The steps were as follows: [0244] (1) The wells of an ELISA plate were coated with 100 μL of 2 μg/mL SA (streptavidin) protein at 4° C. overnight. […] (2) The wells of the ELISA plate were washed with PBST buffer. After adding 200 μL of 2% BSA, the plate was blocked at 37° C. for 1 h. […] (3) The peptide protein was diluted to 2 μg/mL, and a negative control and a positive control (AVI-tagged TfR1 protein) were included. Each experiment contained duplicate controls. […] (4) The wells of the ELISA plate were washed multiple times with PBST buffer. Then, 100 μL of the diluted peptide protein solution from step (3) was added into wells in duplicate, and along with the negative control wells, incubated at 37° C. for 1 h. [0248] (5) The wells of the ELISA plate were washed multiple times with PBST buffer. […] [0249] (6) The wells of the ELISA plate were washed multiple times with PBST buffer. Then, 100 μL of 2× anti-hFc HRP secondary antibody was added, and the plate was incubated at 37° C. for 1 h. [0250] (7) The wells of the ELISA plate were washed multiple times with PBST buffer. After adding 100 μL of TMB chromogenic solution, the reaction was carried out in the dark at room temperature for 30 min. [0251] (8) 100 μL of stop solution (1 mol/L HCl) was added to terminate the reaction. OD450 was measured using a microplate reader, and the readings were recorded.

Experiment [2] has as its target T2, TfR1 peptide D1-helix4 (human).
T2 construct: Synthetic peptide, captured on a streptavidin-coated plate; also called peptide No. 3
T2 peptide: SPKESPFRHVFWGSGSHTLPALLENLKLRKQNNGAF
On the procedure: as §1

The target of experiment [3] is T3, TfR1 peptide D2-loop1-loop2 (human).
T3 construct: Synthetic peptide, captured on a streptavidin-coated plate; also called peptide No. 15
T3 peptide: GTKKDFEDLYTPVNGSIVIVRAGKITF
On the procedure: as §1

In experiment [4] the target is T4, TfR1 peptide D3-helix3 (human).
T4 construct: Synthetic peptide, captured on a streptavidin-coated plate; also called peptide No. 7
T4 peptide: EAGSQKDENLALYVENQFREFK
As for the experimental part: as §1

Experiment [5] deals with T5, TfR1 peptide D1-helix1 (human).
T5 construct: Synthetic peptide, captured on a streptavidin-coated plate; also called peptide No. 1
T5 peptide: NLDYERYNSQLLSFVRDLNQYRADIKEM
On the procedure: as §1

Experiment [6] addresses T6, TfR1 peptide D3-helix2 (human).
T6 construct: Synthetic peptide, captured on a streptavidin-coated plate; also called peptide No. 6
T6 peptide: FTSTIKLLNENSYV
As for the experimental part:
as §1

Experiment [7] concerns the target T7, TfR1 peptide D1-helix1-helix2 (human).
T7 construct: Synthetic peptide, captured on a streptavidin-coated plate; also called peptide No. 18
T7 peptide: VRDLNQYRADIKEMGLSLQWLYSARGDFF
As for the experimental part: as §1

The target of experiment [8] is T8, TfR1 peptide D1-helix3 (human).
T8 construct: Synthetic peptide, captured on a streptavidin-coated plate; also called peptide No. 16
T8 peptide: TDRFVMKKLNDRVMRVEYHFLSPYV
On the procedure:
as §1

The target in experiment [9] is T9, TfR1 peptide D1-helix5 (human).
T9 construct: Synthetic peptide, captured on a streptavidin-coated plate; also called peptide No. 17
T9 peptide: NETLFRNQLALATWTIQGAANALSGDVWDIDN
On the procedure: as §1

The target in experiment [10] is T10, TfR1 peptide D2-loop3-K (human).
T10 construct: Synthetic peptide, captured on a streptavidin-coated plate; also called peptide No. 14
T10 peptide: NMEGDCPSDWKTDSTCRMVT
On the procedure:
as §1

The target of experiment [11] is T11, TfR1 peptide D1-helix3-helix4 (human).
T11 construct: Synthetic peptide, captured on a streptavidin-coated plate; also called peptide No. 19
T11 peptide: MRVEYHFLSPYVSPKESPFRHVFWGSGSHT
On the procedure:
as §1

Experiment [12] deals with T12, TfR1 peptide D3-helix3-loop1 (human).
T12 construct: Synthetic peptide, captured on a streptavidin-coated plate; also called peptide No. 10
T12 peptide: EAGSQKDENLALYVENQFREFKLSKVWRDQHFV
On the procedure: as §1

The target of experiment [13] is T13, TfR1 peptide D2-loop2-K (human).
T13 construct: Synthetic peptide, captured on a streptavidin-coated plate; also called peptide No. 21
T13 peptide: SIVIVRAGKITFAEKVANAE
On the procedure: as §1

B1: anti-humanized TfR1 single-domain antibody-Fc fusion antibody 2H7-hFC1 (Fc fusion)
chain (part 1 of 2): ESGGGLVQPGESLRLSCVASGSIWSIYTMGWYRQAPGKQRDFVASITGDSTRTLESVKDRFIISRDNTKNTLYLQMNSLKPEDTAVYYCQAITSLGEYWGQGTQVTVSS
notes: Expressed in 293F cells, Protein A purified; labelled with pHrodo iFL Green in the internalization assays; also called VHH-hFc; not shown: human IgG1 Fc: hinge, CH2 and CH3 regions, from vector RJK-V4-hFC1; limits and junction (multiple cloning site) not stat
Turning to B1, the OD450 was determined as 0.147 in experiment [1]; 1.49 in [2]; 1.12 in experiment [3]; 0.155 in experiment [4]; 0.21 in [5]; 0.17 in [6]. Moreover, the OD450 in experiment [7] turned out to be 0.977; in experiment [8] it was 0.974; in experiment [9] it was 0.206; in experiment [10], 0.217; in experiment [11], 0.508; in [12] it was 0.229. Further, the OD450 in experiment [13] stood at 0.16. The P/N in [2] stood at 9.5; in [3], 6.4; in experiment [7], 3.5; in [8], 5; in [11], 4.7.
